{
  "source": "patent US20100136005A1",
  "about": "(Genentech, published 2010)",
  "key": {"rhesus CD11a [1]": {"biological_target": "T1, rhesus CD11a (rhesus, UniProt H9Z8N3 26-1169)", "T1 sequence": "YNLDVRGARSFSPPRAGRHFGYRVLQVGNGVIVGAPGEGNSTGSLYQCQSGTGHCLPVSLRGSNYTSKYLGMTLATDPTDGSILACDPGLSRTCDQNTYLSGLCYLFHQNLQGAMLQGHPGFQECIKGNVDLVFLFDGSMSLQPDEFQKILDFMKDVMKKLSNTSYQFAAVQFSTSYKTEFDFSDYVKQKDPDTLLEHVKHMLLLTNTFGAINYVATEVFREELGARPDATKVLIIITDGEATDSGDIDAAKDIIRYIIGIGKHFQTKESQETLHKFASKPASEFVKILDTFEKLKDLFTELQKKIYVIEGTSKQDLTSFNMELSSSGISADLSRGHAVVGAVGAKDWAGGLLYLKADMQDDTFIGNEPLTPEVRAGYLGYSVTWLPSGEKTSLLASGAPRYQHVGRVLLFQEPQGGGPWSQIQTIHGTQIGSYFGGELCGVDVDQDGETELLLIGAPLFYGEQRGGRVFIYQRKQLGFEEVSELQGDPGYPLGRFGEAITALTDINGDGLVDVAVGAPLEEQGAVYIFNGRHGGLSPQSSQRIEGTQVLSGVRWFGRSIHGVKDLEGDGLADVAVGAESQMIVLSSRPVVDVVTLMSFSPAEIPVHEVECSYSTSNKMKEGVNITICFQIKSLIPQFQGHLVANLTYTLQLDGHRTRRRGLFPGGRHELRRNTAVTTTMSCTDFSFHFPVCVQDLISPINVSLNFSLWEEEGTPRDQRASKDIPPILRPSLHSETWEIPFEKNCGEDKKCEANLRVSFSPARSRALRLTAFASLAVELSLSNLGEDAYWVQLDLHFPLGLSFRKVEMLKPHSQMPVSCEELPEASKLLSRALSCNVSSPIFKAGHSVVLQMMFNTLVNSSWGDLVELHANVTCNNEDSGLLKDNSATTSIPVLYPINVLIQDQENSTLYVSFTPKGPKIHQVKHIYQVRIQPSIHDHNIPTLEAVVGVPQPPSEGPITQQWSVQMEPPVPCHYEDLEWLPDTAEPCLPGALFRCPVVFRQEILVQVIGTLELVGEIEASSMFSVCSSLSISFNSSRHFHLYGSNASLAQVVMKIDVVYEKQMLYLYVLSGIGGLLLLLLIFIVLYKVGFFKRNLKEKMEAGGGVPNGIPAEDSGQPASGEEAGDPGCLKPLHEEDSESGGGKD", "test": "cell-based or functional assay"}, "rhesus CD11a [2]": {"biological_target": "T1, rhesus CD11a", "test": "binding to rhesus peripheral blood lymphocytes; end assigned by the printed EC50s"}, "[3]": {"biological_target": "T2, rhesus-human chimeric CD11a (human (I-domain mutated to rhesus), UniProt P20701 26-1170)", "T2 sequence (looked up)": "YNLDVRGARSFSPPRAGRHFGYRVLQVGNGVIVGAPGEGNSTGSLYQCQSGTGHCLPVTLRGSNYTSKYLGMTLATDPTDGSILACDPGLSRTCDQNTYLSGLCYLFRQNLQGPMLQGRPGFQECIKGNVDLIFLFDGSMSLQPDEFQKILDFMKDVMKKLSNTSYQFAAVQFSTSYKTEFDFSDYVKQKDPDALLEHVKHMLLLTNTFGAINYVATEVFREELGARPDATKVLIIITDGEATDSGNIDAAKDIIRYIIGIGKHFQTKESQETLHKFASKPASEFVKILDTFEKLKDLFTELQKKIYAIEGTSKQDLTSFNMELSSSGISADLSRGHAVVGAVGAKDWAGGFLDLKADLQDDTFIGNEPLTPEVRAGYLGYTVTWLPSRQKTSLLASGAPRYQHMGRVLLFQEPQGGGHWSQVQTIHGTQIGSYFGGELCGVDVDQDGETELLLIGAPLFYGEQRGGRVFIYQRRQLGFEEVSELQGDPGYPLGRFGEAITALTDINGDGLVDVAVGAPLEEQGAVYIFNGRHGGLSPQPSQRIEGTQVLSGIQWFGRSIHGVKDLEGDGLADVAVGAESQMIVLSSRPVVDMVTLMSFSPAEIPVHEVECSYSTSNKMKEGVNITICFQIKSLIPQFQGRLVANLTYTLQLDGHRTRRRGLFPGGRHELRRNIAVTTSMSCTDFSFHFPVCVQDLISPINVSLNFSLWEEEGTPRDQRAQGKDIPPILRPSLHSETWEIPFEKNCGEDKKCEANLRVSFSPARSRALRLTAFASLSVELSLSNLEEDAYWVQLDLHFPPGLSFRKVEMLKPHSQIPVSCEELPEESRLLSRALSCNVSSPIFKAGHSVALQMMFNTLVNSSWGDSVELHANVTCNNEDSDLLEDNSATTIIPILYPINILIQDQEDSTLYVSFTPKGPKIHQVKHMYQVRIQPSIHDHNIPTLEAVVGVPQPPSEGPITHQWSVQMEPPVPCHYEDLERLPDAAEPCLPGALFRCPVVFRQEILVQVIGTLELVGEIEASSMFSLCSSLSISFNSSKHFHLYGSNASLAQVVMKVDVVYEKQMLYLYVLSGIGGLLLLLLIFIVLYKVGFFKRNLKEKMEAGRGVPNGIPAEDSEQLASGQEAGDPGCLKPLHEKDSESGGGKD", "test": "cell-based or functional assay"}, "rhesus CD11a [4]": {"biological_target": "T1, rhesus CD11a", "test": "cell-based or functional assay", "remark": "listed apart in the source"}, "[5]": {"biological_target": "T2, rhesus-human chimeric CD11a", "test": "cell-based or functional assay", "remark": "listed apart in the source"}, "rhesus CD11a [6]": {"biological_target": "T1, rhesus CD11a", "test": "cell-based or functional assay", "remark": "listed apart in the source"}, "rhesus CD11a [7]": {"biological_target": "T1, rhesus CD11a", "test": "saturation binding, Kd(app) compared", "procedure": "Antibody affinities were determined by saturation binding using either peripheral blood mononuclear cells (murine MHM24 and HuIgG1) or rhesus leukocytes (MHM23, RhIgG1). In each assay, a radiolabeled antibody was serially diluted in HBSS-0.2% gelatin in quadruplicate. Nonspecific binding was determined by the addition of 500 nM final concentration of homologous unlabeled antibody in duplicate through the serial dilution. Human lymphocytes or rhesus leukocytes were added to the plates in a volume of 170 μl per well. Plates were incubated for 2 hr at room temperature on an orbital plate shaker. After incubation, cells were harvested using a SKATRON™ cell harvester (Lier, Norway) and washed 10 times with PBS containing 0.25% gelatin and 0.1% sodium azide. Samples were then counted for 1 min in an LBK Wallac GammaMaster gamma counter (Gaithersburg, Md.). Data was transformed from counts per minute to nanomolarity and four-parameter curve-fitting of saturation plots (bound versus total) was then performed to determine Kd (app) values."}, "rhesus CD11a [8]": {"biological_target": "T1, rhesus CD11a", "test": "rhesus EC50 of the variant against human EC50 of HuIgG1; end assigned by the printed EC50s"}},
  "data": [
    {"binder": "rhesus-binding MHM24 RhIgG1 (antibody, V domains shown, HuIgG1 variant, human IgG1; also called H2C12; rhesusized antibody) VH: EVQLVESGGGLVQPGGSLRLSCAASGYSFTGHWMNWVRQAPGKGLEWVGMIAPASSSTRYNQKFKDRFTISVDKSKNTLYLQMNSLRAEDTAVYYCARGIYFYGTTYFDYWGQGTLVTVSS VL: DIQMTQSPSSLSASVGDRVTITCRASKTISKYLAWYQQKPGKAPKLLIYSGSTLQSGVPSRFSGSGSGTDFTLTISSLQPEDFATYYCQQHNEYPLTFGQGTKVEIKR", "values": [
      {"measurement": "IC50 Value (nM), rhesus mixed lymphocyte response", "setting": "rhesus CD11a [1]", "value": 23.4, "unit": "nM"},
      {"measurement": "fold improvement over the EC50 of HuIgG1 for rhesus CD11a", "setting": "rhesus CD11a [2]", "value": "240 to 415", "unit": "fold"},
      {"measurement": "IC50 Value (nM), Rh/HuCD11a:HuK cell adhesion", "setting": "[3]", "value": 4.9, "unit": "nM"},
      {"measurement": "IC50 Value (nM), RhLy:HuICAM cell adhesion", "setting": "rhesus CD11a [4]", "value": 5.3, "unit": "nM"},
      {"measurement": "IC50 Value (nM), RhLy:HuK cell adhesion", "setting": "rhesus CD11a [4]", "value": 119, "unit": "nM"},
      {"measurement": "fold down from MHM23, Rh/HuCD11a:HuK adhesion", "setting": "[5]", "value": 4, "unit": "fold"},
      {"measurement": "fold less efficacious than MHM23, RhLy:HuICAM adhesion", "setting": "rhesus CD11a [6]", "value": 4, "unit": "fold"},
      {"measurement": "fold less efficacious than MHM23, RhLy:HuK adhesion", "setting": "rhesus CD11a [6]", "value": 74, "unit": "fold"},
      {"measurement": "fold down from the Kd of HuIgG1 for human CD11a", "setting": "rhesus CD11a [7]", "value": "~26", "unit": "fold"},
      {"measurement": "fold weaker than the EC50 of HuIgG1 for human CD11a", "setting": "rhesus CD11a [8]", "value": "3 to 5", "unit": "fold"}
    ]}
  ]
}
